Data taken from patent US20250333503A1.

Assays:
[1] = target: mouse PVRL2 endogenously expressed on B16-F10 cells (mouse) (UniProt P32507); experiment: FACS dose response on B16-F10 cells
[2] = target: mouse PVRL2 splice variant 2 on HEK293 cells (mouse); experiment: FACS dose response on HEK293 OX mouse PVRL2

Sequence of mouse PVRL2 endogenously expressed on B16-F10 cells (mouse) (P32507 32-530): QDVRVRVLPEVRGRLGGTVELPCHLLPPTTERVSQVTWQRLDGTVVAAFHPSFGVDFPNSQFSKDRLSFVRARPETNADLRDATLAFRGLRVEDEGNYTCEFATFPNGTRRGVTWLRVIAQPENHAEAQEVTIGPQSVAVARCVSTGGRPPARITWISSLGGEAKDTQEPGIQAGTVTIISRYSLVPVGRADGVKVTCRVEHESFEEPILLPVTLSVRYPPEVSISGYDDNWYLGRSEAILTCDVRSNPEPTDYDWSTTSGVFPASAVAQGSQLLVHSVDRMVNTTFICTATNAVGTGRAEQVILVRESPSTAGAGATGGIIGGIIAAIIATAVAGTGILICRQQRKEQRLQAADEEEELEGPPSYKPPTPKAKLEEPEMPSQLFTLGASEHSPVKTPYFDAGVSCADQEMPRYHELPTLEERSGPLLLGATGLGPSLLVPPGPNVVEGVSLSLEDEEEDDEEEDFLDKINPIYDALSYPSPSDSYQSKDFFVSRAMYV

PVRIG mECD-mIg fusion protein (ECD of mouse PVRIG fused to Fc of mouse IgG2a) (Fc fusion)
concentration at saturation of binding [1]: 12.5 µg/mL | concentration at saturation of binding [2]: 12.5 µg/mL
